Assay results taken from PMC5080453 (2016).

Target: BMPER_N (Homo sapiens (Human), UniProt Q8N8U9)
Test: SPR (Tsg on chip); one cell MST

BMPER_N, sequence (Q8N8U9 40-369): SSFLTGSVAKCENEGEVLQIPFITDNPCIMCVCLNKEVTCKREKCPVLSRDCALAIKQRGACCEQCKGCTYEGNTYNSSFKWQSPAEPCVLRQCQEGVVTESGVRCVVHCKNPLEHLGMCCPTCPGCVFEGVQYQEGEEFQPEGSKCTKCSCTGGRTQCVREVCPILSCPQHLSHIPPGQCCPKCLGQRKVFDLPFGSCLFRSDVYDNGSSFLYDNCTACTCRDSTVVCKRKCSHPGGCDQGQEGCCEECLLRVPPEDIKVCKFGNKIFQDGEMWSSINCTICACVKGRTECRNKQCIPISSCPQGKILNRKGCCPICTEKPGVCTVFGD

Kd: 550 pM
B1: TWSG1 (protein)
chain: CNKALCASDVSKCLIQELCQCRPGEGNCSCCKECMLCLGALWDECCDCVGMCNPRNYSDTPPTSKSTVEELHEPIPSLFRALTEGDTQLNWNIVSFPVAEELSHHENLVSFLETVNQPHHQNVSVPSNNVHAPYSSDKEHMCTVVYFDDCMSIHQCKISCESMGASKYRWFHNACCECIGPECIDYGSKTVKCMNCMF
